# Test results as given in PMC7360120.
# Target: HA-ELKS1αB
substance,measurement,value
GST-Rab6B Q72L (from UniProt P61294 1-208) (natural protein),"fraction of synapses with mito-Rab6-tagged mitochondria in neurons co-expressing mito-Rab6BQL and HA-ELKS1αB, compared to inactive Rab6B (mito-Rab6BTN) or HA-ELKS1^∆955-971",2 fold
